Source: FireProtDB (doi:10.1073/pnas.0804396105)
“And” between values parts separate entries of the source, which are not always exact repeats. Equal values may be shown once.

B1: Adenosine receptor A2a, P29274 (parent)
chain: MPIMGSSVYITVELAIAVLAILGNVLVCWAVWLNSNLQNVTNYFVVSLAAADIAVGVLAIPFAITISTGFCAACHGCLFIACFVLVLTQSSIFSLLAIAIDRYIAIRIPLRYNGLVTGTRAKGIIAICWVLSFAIGLTPMLGWNNCGQPKEGKNHSQGCGEGQVACLFEDVVPMNYMVYFNFFACVLVPLLLMLGVYLRIFLAARRQLKQMESQPLPGERARSTLQKEVHAAKSLAIIVGLFALCWLPLHIINCFTFFCPDCSHAPLWLMYLAIVLSHTNSVVNPFIYAYRIREFRQTFRKIIRSHVLRQQEPFKAAGTSARVLAAHGSDGEQVSLRLNGHPPGVWANGSAPHPERRPNGYALGLVSGGSAQESQGNTGLPDVELLSHELKGVCPEPPGLDDPLAQDGAGVS

Variants of: B1
Settings: Homo sapiens; pH 7.4; Thermal; Activity; Tris 50 mM; NaCl 0.4 M; structure 4UHR; whole UniProt chain shown

Variant	Tm	change of melting temperature, mutant - wild type (higher = more stable)
MPIMGSSVYITVELAIAVLAILGNVLVCWAVWLNSNLQNVTNYFVVSLAAADILVGVLAIPFAITISTGFCAACAGCLFIACFVLVLAQSSIFSLLAIAIDRYIAIRIPLRYNGLVTGTRAKGIIAICWVLSFAIGLTPMLGWNNCGQPKEGKNHSQGCGEGQVACLFEDVVPMNYMVYFNFFACVLVPLLLMLGVYLRIFLAARRQLKQMESQPLPGERARSTLQKEVHAAKSLAIIAGLFALCWLPLHIINCFTFFCPDCSHAPLWLMYLAIVLSHTNSVVNPFIYAYRIREFRQTFRKIIRSHVLRQQEPFKAAGTSARVLAAHGSDGEQVSLRLNGHPPGVWANGSAPHPERRPNGYALGLVSGGSAQESQGNTGLPDVELLSHELKGVCPEPPGLDDPLAQDGAGVS [A54L H75A T88A V239A]	40 °C and 44 °C	9 °C and 12 °C
MPIMGSSVYITVELAIAVLAILGNVLVCWAVWLNSNLQNVTNYFVVSLAAADILVGVLAIPFAITISTGFCAACHGCLFIACFVLVLTQSSIFSLLAIAIDRYIAIRIPLRYNGLVTGTRAKGIIAICWVLSFAIGLTPMLGWNNCGQPKEGKNHSQGCGEGQVACLFEDVVPMNYMVYFNFFACVLVPLLLMLGVYLRIFLALRRQLKQMESQPLPGERARSTLQKEVHAAKSLAIIVGLFALCWLPLHIINCFTFFCPDCSHAPLWLMYLAIVLSHTNSVVNPFIYAYRIREFRQTFRKIIRSHVLRQQEPFKAAGTSARVLAAHGSDGEQVSLRLNGHPPGVWANGSAPHPERRPNGYALGLVSGGSAQESQGNTGLPDVELLSHELKGVCPEPPGLDDPLAQDGAGVS [A54L A204L]	33 °C	2 °C
MPIMGSSVYITVELAIAVLAILGNVLVCWAVWLNSNLQNVTNYFVVSLAAADILVGVLAIPFAITISTGFCAACHGCLFIACFVLVLTQSSIFSLLAIAIDRYIAIRIPLRYNGLVTGTRAAGIIAICWVLSFAIGLTPMLGWNNCGQPKEGKNHSQGCGEGQVACLFEDVVPMNYMVYFNFFACVLVPLLLMLGVYLRIFLAARRQLKQMESQPLPGERARSTLQKEVHAAKSAAIIVGLFALCWLPLHIINCFTFFCPDCSHAPLWLMYLAIVLSHTNSVVNPFIYAYRIREFRQTFRKIIRSHVLRQQEPFKAAGTSARVLAAHGSDGEQVSLRLNGHPPGVWANGSAPHPERRPNGYALGLVSGGSAQESQGNTGLPDVELLSHELKGVCPEPPGLDDPLAQDGAGVS [A54L K122A L235A]	47 °C and 48 °C	16 °C
MPIMGSSVYITVELAIAVLAILGNVLVCWAVWLNSNLQNVTNYFVVSLAAADILVGVLAIPFAITISTGFCAACHGCLFIACFVLVLTQSSIFSLLAIAIDRYIAIRIPLRYNGLVTGTRAKGIIAICWVLSFAIGLTPMLGWNNCGQPKEGKNHSQGCGEGQVACLFEDVVPMNYMVYFNFFACVLVPLLLMLGVYLRIFLAARRQLKQMESQPLPGERARSTLQKEVHAAKSAAIIVGLFALCWLPLHIINCFTFFCPDCSHAPLWLMYLAIVLSHTNSVVNPFIYAYRIREFRQTFRKIIRSHVLRQQEPFKAAGTSARVLAAHGSDGEQVSLRLNGHPPGVWANGSAPHPERRPNGYALGLVSGGSAQESQGNTGLPDVELLSHELKGVCPEPPGLDDPLAQDGAGVS [A54L L235A]	42 °C and 45 °C	11 °C and 13 °C
MPIMGSSVYITVELAIAVLAILGNVLVCWAVWLNSNLQNVTNYFVVSLAAADIAVGVLAIPFAITISTGFCAACHGCLFIACFVLVLTQSSIFSLLAIAIDRYIAIRIPLRYNALVTATRAKGIIAICWVLSFAIGLTPMLGWNNCGQPKEGKNHSQGCGEGQVACLFEDVVPMNYMVYFNFFACVLVPLLLMLGVYLRIFLAARRQLKQMESQPLPGERARSTLQKEVHAAKSLAIIVGLFALCWLPLHIINCFTFFCPDCSHAPLWLMYLAIVLSHTNSVVNPFIYAYRIREFRQTFRKIIRSHVLRQQEPFKAAGTSARVLAAHGSDGEQVSLRLNGHPPGVWANGSAPHPERRPNGYALGLVSGGSAQESQGNTGLPDVELLSHELKGVCPEPPGLDDPLAQDGAGVS [G114A G118A]	31 °C	11 °C
MPIMGSSVYITVELAIAVLAILGNVLVCWAVWLNSNLQNVTNYFVVSLAAADILVGVLAIPFAITISTGFCAACHGCLFIACFVLVLAQSSIFSLLAIAIDRYIAIRIPLRYNGLVTGTRAKGIIAICWVLSFAIGLTPMLGWNNCGQPKEGKNHSQGCGEGQVACLFEDVVPMNYMVYFNFFACVLVPLLLMLGVYLRIFLAARRQLKQMESQPLPGERARSTLQKEVHAAKSLAIIAGLFALCWLPLHIINCFTFFCPDCSHAPLWLMYLAIVLSHTNSVVNPFIYAYRIREFRQTFRKIIRSHVLRQQEPFKAAGTSARVLAAHGSDGEQVSLRLNGHPPGVWANGSAPHPERRPNGYALGLVSGGSAQESQGNTGLPDVELLSHELKGVCPEPPGLDDPLAQDGAGVS [A54L T88A V239A]	46 °C	14 °C
MPIMGSSVYITVELAIAVLAILGNVLVCWAVWLNSNLQNVTNYFVVSLAAADILVGVLAIPFAITISTGFCAACHGCLFIACFVLVLTQSSIFSLLAIAIDRYIAIRIPLRYNGLVTGTRAKGIIAICWVLSFAIGLTPMLGWNNCGQPKEGKNHSQGCGEGQVACLFEDVVPMNYMVYFNFFACVLVPLLLMLGVYLRIFLAARRQLKQMESQPLPGERARSTLQKEVHAAKSLAIIAGLFALCWLPLHIINCFTFFCPDCSHAPLWLMYLAIVLSHTNSVVNPFIYAYRIREFRQTFRKIIRSHVLRQQEPFKAAGTSARVLAAHGSDGEQVSLRLNGHPPGVWANGSAPHPERRPNGYALGLVSGGSAQESQGNTGLPDVELLSHELKGVCPEPPGLDDPLAQDGAGVS [A54L V239A]	40 °C and 42 °C	9 °C and 10 °C
MPIMGSSVYITVELAIAVLAILGNVLVCWAVWLNSNLQNVTNYFVVSLAAADIAVGVLAIPFAITISTGFCAACHGCLFIACFVLVLTQSSIFSLLAIAIDRYIAIRIPLRYNGLVTGTRAKGIIAICWVLSFAIGLTPMLGWNNCGQPKEGKNHSQGCGEGQVACAFEDVVPMNYMVYFNFFLCVLVPLLLMLGVYLAIFLAARRQLKQMESQPLPGERARSTLQKEVAAAKSLAIIVGLFALCWLPLHIINCFTFFCPDCSHAPLWLMYLAIVLSHTNSVVNPFIYAYRIREFRQTFRKIIRSHVLRQQEPFKAAGTSARVLAAHGSDGEQVSLRLNGHPPGVWANGSAPHPERRPNGYALGLVSGGSAQESQGNTGLPDVELLSHELKGVCPEPPGLDDPLAQDGAGVS [L167A A184L R199A H230A]	31 °C	11 °C
MPIMGSSVYITVELAIAVLAILGNVLVCWAVWLNSNLQNVTNYFVVSLAAADIAVGVLAIPFAITISTGFCAACHGCLFIACFVLVLTQSSIFSLLAIAIDRYIAIRIPLRYNGLVTGTRAKGIIAICWVLSFAIGLTPMLGWNNCGQPKEGKNHSQGCGEGQVACAFEDVVPMNYMVYFNFFLCVLVPLLLMLGVYLRIFLAARRQLKQMESQPLPGERARSTLQKEVHAAKSLAIIVGLFALCWLPLHIINCFTFFCPDCSHAPLWLMYAAIVLSHTNSVVNPFIYAYRIREFRQTFRKIIRSHVLRQQEPFKAAGTSARVLAAHGSDGEQVSLRLNGHPPGVWANGSAPHPERRPNGYALGLVSGGSAQESQGNTGLPDVELLSHELKGVCPEPPGLDDPLAQDGAGVS [L167A A184L L272A]	27 °C	7 °C
MPIMGSSVYITVELAIAVLAILGNVLVCWAVWLNSNLQNVTNYFVVSLAAADILVGALAIPFAITISTGFCAACHGCLFIACFVLVLTQSSIFSLLAIAIDRYIAIRIPLRYNGLVTGTRAKGIIAICWVLSFAIGLTPMLGWNNCGQPKEGKNHSQGCGEGQVACLFEDVVPMNYMVYFNFFACVLVPLLLMLGVYLRIFLAARRQLKQMESQPLPGERARSTLQKEVHAAKSLAIIVGLFALCWLPLHIINCFTFFCPDCSHAPLWLMYLAIVLSHTNSVVNPFIYAYRIREFRQTFRKIIRSHVLRQQEPFKAAGTSARVLAAHGSDGEQVSLRLNGHPPGVWANGSAPHPERRPNGYALGLVSGGSAQESQGNTGLPDVELLSHELKGVCPEPPGLDDPLAQDGAGVS [A54L V57A]	31 °C	0 °C
MPIMGSSVYITVELAIAVLAILGNVLVCWAVWLNSNLQNVTNYFVVSLAAADILVGVLAIPFAITISTGFCAACHGCLFIACFVLVLAQSSIFSLLAIAIDRYIAIRIPLRYNGLVTGTRAKGIIAICWVLSFAIGLTPMLGWNNCGQPKEGKNHSQGCGEGQVACLFEDVVPMNYMVYFNFFACVLVPLLLMLGVYLRIFLAARRQLKQMESQPLPGERARSTLQKEVHAAKSLAIIVGLFALCWLPLHIINCFTFFCPDCSHAPLWLMYLAIVLSHTNSVVNPFIYAYRIREFRQTFRKIIRSHVLRQQEPFKAAGTSARVLAAHGSDGEQVSLRLNGHPPGVWANGSAPHPERRPNGYALGLVSGGSAQESQGNTGLPDVELLSHELKGVCPEPPGLDDPLAQDGAGVS [A54L T88A]	39 °C	8 °C
MPIMGSSVYITVELAIAVLAILGNVLVCWAVWLNSNLQNVTNYFVVSLAAADILVGVLAIPFAITISTGFCAACAGCLFIACFVLVLTQSSIFSLLAIAIDRYIAIRIPLRYNGLVTGTRAKGIIAICWVLSFAIGLTPMLGWNNCGQPKEGKNHSQGCGEGQVACLFEDVVPMNYMVYFNFFACVLVPLLLMLGVYLRIFLAARRQLKQMESQPLPGERARSTLQKEVHAAKSLAIIAGLFALCWLPLHIINCFTFFCPDCSHAPLWLMYLAIVLSHTNSVVNPFIYAYRIREFRQTFRKIIRSHVLRQQEPFKAAGTSARVLAAHGSDGEQVSLRLNGHPPGVWANGSAPHPERRPNGYALGLVSGGSAQESQGNTGLPDVELLSHELKGVCPEPPGLDDPLAQDGAGVS [A54L H75A V239A]	37 °C	6 °C
MPIMGSSVYITVELAIAVLAILGNVLVCWAVWLNSNLQNVTNYFVVSLAAADILVGVLAIPFAITISTGFCAACHGCLFIACFVLVLTQSSIFSLLAIAIDRYIAIRIPLRYNGLVTGTRAAGIIAICWVLSFAIGLTPMLGWNNCGQPKEGKNHSQGCGEGQVACLFEDVVPMNYMVYFNFFACVLVPLLLMLGVYLRIFLAARRQLKQMESQPLPGERARSTLQKEVHAAKSLAIIVGLFALCWLPLHIINCFTFFCPDCSHAPLWLMYLAIVLSHTNSVVNPFIYAYRIREFRQTFRKIIRSHVLRQQEPFKAAGTSARVLAAHGSDGEQVSLRLNGHPPGVWANGSAPHPERRPNGYALGLVSGGSAQESQGNTGLPDVELLSHELKGVCPEPPGLDDPLAQDGAGVS [A54L K122A]	35 °C and 40 °C	4 °C and 8 °C
MPIMGSSVYITVELAIAVLAILGNVLVCWAVWLNSNLQNVTNYFVVSLAAADIAVGVLAIPFAITISTGFCAACHGCLFIACFVLVLTQSSIFSLLAIAIDRYIAIRIPLRYNGLVTGTRAAGIIAICWVLSFAIGLTPMLGWNNCGQPKEGKNHSQGCGEGQVACLFEDVVPMNYMVYFNFFACVLVPLLLMLGVYLRIFLAARRQLKQMESQPLPGERARSTLQKEVHAAKSAAIIVGLFALCWLPLHIINCFTFFCPDCSHAPLWLMYLAIVLSHTNSVVNPFIYAYRIREFRQTFRKIIRSHVLRQQEPFKAAGTSARVLAAHGSDGEQVSLRLNGHPPGVWANGSAPHPERRPNGYALGLVSGGSAQESQGNTGLPDVELLSHELKGVCPEPPGLDDPLAQDGAGVS [K122A L235A]	37 °C	6 °C
MPIMGSSVYITVELAIAVLAILGNVLVCWAVWLNSNLQNVTNYFVVSLAAADIAVGVLAIPFAITISTGFCAACHGCLFIACFVLVLTQSSIFSLLAIAIDRYIAIRIPLRYNGLVTGTRAKGIIAICWVLSFAIGLTPMLGWNNCGQPKEGKNHSQGCGEGQVACAFEDVVPMNYMVYFNFFLCVLVPLLLMLGVYLAIFLAARRQLKQMESQPLPGERARSTLQKEVHAAKSLAIIVGAFALCWLPLHIINCFTFFCPDCSHAPLWLMYAAIVLSHTNSVVNPFIYAYRIREFRQTFRKIIRSHVLRQQEPFKAAGTSARVLAAHGSDGEQVSLRLNGHPPGVWANGSAPHPERRPNGYALGLVSGGSAQESQGNTGLPDVELLSHELKGVCPEPPGLDDPLAQDGAGVS [L167A A184L R199A L241A L272A]	29 °C	9 °C
